Assay results reported in patent US20250304658A1.
Several values for one entry are separate records, joined by “and”; a condition that tells them apart may be missing. Identical values can stand only once. Like-named read-outs stand apart in the source and are kept apart here.

Key:
[1] = target: BK virus VP1 protein, genotype I (BK virus) (UniProt P03088); assay: cell-based or functional assay
[2] = target: BK virus VP1 protein, genotype I (BK virus) (UniProt P03088); assay: cell-based or functional assay; remark: listed apart in the source

B1: 7A4 (antibody, V domains shown)
VH: QVQLVESGGDLVKPGGSLRLSCVASGFTFSDYYMNWIRLPPGKGLEWISYIDSSAGAIYYADSVKGRFTVSRDDAKNSLFLHMNSLRADDTAVYYCVRERRDGHKIFDYWGPGTLVTVSS
VL: DIVMTQSPDSLAVSLGERATINCKSSQNILYSSNNKNYLAWYQQKAGQPPKLLIFWSSIRESGVPDRFSGSGSGTDFTLTISSLQAEDVAVYYCQQYYSSPYNFGRGTTLEIK
With B1 the EC50, pseudovirus neutralization [1] was 9.1 pM.

B2: 2F7 (antibody, V domains shown)
VH: QVQLVESGGGLVKPGGSLRLSCVASGFTFSDYYMNWIRLPPGRGLQWISYIDSSAGAIYYADSVKGRFTVSRDDAKNSLYLQMNSLRADDTAVYYCARERRDGHKIFDWWGQGTLVTVSS
VL: DIVMTQSPDSLAVSLGERATINCKSSQNILYTSNNKNYLGWYQQKAGQPPKLLIYWSSTRNSGVPDRFSGSGSGTDFTLTISSLQAEDVAVYYCHQYYSSPYTFGQGTNLEIK
B2 showed an EC50, pseudovirus neutralization [1] of 52.5 pM.

B3: 1E2 (antibody, V domains shown)
VH: QVQLVESGGDLVKPGGSLRLSCVASGFTFSDYYMNWIRLPPGKGLEWVSYIDSSAGAIYYADSVRGRFTVSRDDAKNSLFLHMNSLRADDTAVYYCARERRDGHKIFDCWGPGTLVTVSS
VL: DIVMTQSPDSLAVSLGERATINCKSSQNILYSSNNKNYLAWYQQKAGQPPKLLIFWSSTRESGVPDRFSGSGSGTDFTLTINSLQAEDVAVYYCQQYYSSPYNFGRGTTLEIK
B3 showed an EC50, pseudovirus neutralization [1] of 59 pM.

B4: 9B4 (antibody, V domains shown)
VH: QVQLVESGGDLVKPGGSLRLSCVASGFTFSDYYMNWIRLPPGKGLEWISYIDSSAGAIYYADSVKGRFTVSRDDAKNSLFLHMNSLRADDTAVYYCARERREGHKIFDFWGPGTLVTVSS
VL: DIVMTQSPDSLALSLGERATINCKSSQNILYSSNNKNYLACYQQKAGQPPKLLIFWSSTRESGVPDRFSGSGSGTDFTLTISSLQAEDVAVYYCQQYYSSPYNFGRGTTLEIK
Work on B4 yielded an EC50, pseudovirus neutralization [1] of 72.5 pM.

B5: 5A8 (antibody, V domains shown)
VH: QVQLVESGGDLVKPGGSLRLSCVASGFTFSDYYMNWIRLPPGRGLEWISYIDSSAGAIYYADSVKGRFTVSRDDAKKSLFLYMNSLRADDTAVYYCARERRDGHKIFDYWGPGTLVTVSS
VL: DIVMTQSPDSLAVSLGERATINCKSSQNILYSSNNKNYLAWYQQKAGQPPKLLIFWSSTRESGVPDRFSGSGSGTDFTLTISSLQAEDVAVYYCHQYYSSPYNFGRGTTLEIK
B5 showed an EC50, pseudovirus neutralization [1] of 20.1 pM.

B6: 2H1 (antibody, V domains shown)
VH: QVQLVESGGDLVKPGGSLRLSCVASGFTFSDYYMNWIRLPPGKGLEWISYIDSSAGAIYYADSVKGRFTVSRDDAKNSLFLHMNSLRADDTAVYYCARERRDGHKIFDCWGPGTLVTVSS
VL: DIVMTQSPDSLAVSLGERATINCKSSQNILYSSNNKNYLAWYQQKTGQPPKLLIFWSSTRESGVPDRFSGSGSGTDFTLTISSLQAEDVAVYYCQQYYSSPYNFGRGTTLEIK
For B6, the EC50, pseudovirus neutralization [1] was 20.2 pM and 41.8 pM.

B7: 1H10 (antibody, V domains shown)
VH: QVHLVESGGDLVKPGGSLRLSCVASGFTFSDYYMNWIRMPPGKGLEWISYIDSSAGAIYYADSVKGRFTVSRDDAKNSLFLHMNNLRADDTAVYYCARERRDGHKIFDCWGPGTLVTVSS
VL: DIVMTQSPDSLAVSLGERATINCKSSQNILYSSNNKNYLAWYQQKAGQPPKLLIFWSSTRESGVPDRFSGSGSGTDFTLTISSLQAEDVAVYYCQQYYSSPYNFGRGTTLEIK
For B7, the EC50, pseudovirus neutralization [1] was 68.4 pM.

B8: 8D10 (antibody, V domains shown)
VH: QVHLVESGGDLVKPGGSLRLSCVASGFTFSDYYMNWIRLPPGKGLEWISYIDSSAGAIYYADSVKGRFTVSRDDAKNSMFLHMNSLRADDTAVYYCARERRDGHKIFDYWGPGTLVTVSS
VL: DIVMTQSPDSLAVSLGERATINCKSSQNILYSSNNKNYLAWYQQKAGQPPKLLIFWSSTRESGVPDRFSGSGSGTDFTLTISSLQAEDVAVYYCQQYYSSPYNFGRGTTLEIK
Binder B8 has an EC50, pseudovirus neutralization [1] of 62.9 pM.

B9: 8A11 (antibody, V domains shown)
VH: QVQLVESGGDLVKPGGSLRLSCVASGFTFSDYYMNWIRLPPGKGLEWISYIDSSAGATYYADSVKGRFTVSRDDAKNSLFLHMNSLRAEDTAVYYCARERRSGHKIFDCWGPGTLVTVSS
VL: DIVMTQSPDSLAVSLGERATINCKSSQNILYSSNNKNYLAWYQQKAGQPPKLLIFWSSTRESGVPDRFSGSGSGTDFTLTISSLQAEDVAVYYCQQYYSSPYNFGRGTTLEIK
Binder B9 has an EC50, pseudovirus neutralization [1] of 108 pM.

B10: 4F7 (antibody, V domains shown)
VH: QVQLVESGGDLVKPGGSLRLSCVASGFTFSDYYMNWIRLPPGKGLEWISYIDSSAGAIYYADSVKGRFTVSRDDAKNSLFLHMNNLRADDTAVYYCARERRDGHKIFDCWGPGTLVTVSS
VL: DIVMTQSPDSLAVSLGERATINCKSSQNILYSSNNKNYLAWYQQKAGQPPKLLIFWSSTRESGVPDRFSGSGSGTDFTLTISSLQAEDVAVYYCQQYYSSPYNFGRGTTLEIK
B10 showed an EC50, pseudovirus neutralization [1] of 32.5 pM.

B11: 7H8 (antibody, V domains shown)
VH: EVQLLESGGGLVQPGGSLRLSCAASGFAFHTYDMTWVRQAPGKGLEWVSGVVGSGINTYYADSVKGRFTISRDNSKSTLYLQMNSLRAEDTAVYYCAKDSSSWFSLHYWGQGTLVTVSS
VL: DIQMTQSPSTLSASVGDRVTITCRASQSISNWLAWYQQKPGKAPKLLIYKASSLESGVPSRFSGSGSGTDFTLTISSLQPDDFASYYCQQYRSYAYTFGQGTKLEIT
B11 was tested, and the EC50, pseudovirus neutralization [1] was 59.6 pM.

B12: 2B9 (antibody, V domains shown)
VH: EVQLLESGGGLAQPGKSLRLSCAASGFTFSGFAMSWVRQAPGKGLEWVSGISGSGDITYYADSVKGRFTISRDNSKSTLYLQMNSLGAEDTAVYYCAKDPYNWNHGVYGMDVWGQGTTVTVSS
VL: DIQMTQSPSSLSASVGDRVTITCRASQSISSYLNWYQQKPGKAPKFLIYGASSLQSGVPSRFSGSGSGTDFTLTISSLQPEDFAAYYCQQSFNAPLTFGGGTKVEIK
Work on B12 yielded an EC50, pseudovirus neutralization [2] of 4.2 pM, an EC50, pseudovirus neutralization [1] of 32.2 pM and an EC50, pseudovirus neutralization (mAb mixed with irrelevant isotype matched mAb M2) [1] of 2.77 pM.

B13: 9G9 (antibody, V domains shown)
VH: EVQLLESGGGLVQPGGSLRLSCAASGFTFHNYAMSWVRQAPGKGLEWVSGISGSGGTAYYADSVKGRFTISRDNSKNTLYLQMNSLRADDTALYYCAKDRFLEWVEGFDSWGQGTLVTVSS
VL: DIQMTQSPSSLSASVGDRVTITCRASQSIGSFLIWYQQKPGKAPKLLIYAASSLQSGVPSRFSGSGSGTDFTLIISSLQPEDFATYYCQQSYNTPLTFGGGTKVEIK
Binder B13 has an EC50, pseudovirus neutralization (mAb mixed with irrelevant isotype matched mAb M2) [2] of 2.76 pM and an EC50, pseudovirus neutralization [1] of 4.7 pM.

B14: 15C10 (antibody, V domains shown)
VH: EVQLLESGGGLVQPGGSLRLSCAASGFTFSSFAMSWVRQAPGKGLEWVSGISASGGTTNYADSVKGRFTISRDNSKNTLYLQMSSLRAEDTAEYYCAKDRFLEWVEGFDPWGQGILVTVSP
VL: DIQMTQSPSSLSASVGDRVTITCRASQSIGRFLIWYQQKPGKAPKLLLYATSSLQSGVPARFTGSGSGTDFTLTIGSLQPEDFATYYCQQSYITPLTFGGGTKVEIK
B14 showed an EC50, pseudovirus neutralization [2] of 0.1 pM and an EC50, pseudovirus neutralization [1] of 9.4 pM.

B15: 14F5 (antibody, V domains shown)
VH: EVQLLESGGGLVQPGGSLRLSCAVSGFTFSSFAMSWVRQAPGKGLEWVSGISASGGTTNYADSVKGRFTISRDNSKNTLYLQMSSLRAEDTAEYYCAKDRFLEWVEGFDPWGQGILVTVSP
VL: DIQMTQSPSSLSASVGDRVTITCRASQSIGRFLIWYQQKPGKAPKLLLYATSSLQSGVPARFTGSGSGTDFTLTIGSLQPEDFATYYCQQSYITPLTFGGGTKVEIK
For B15, the EC50, pseudovirus neutralization [1] was 10.1 pM.

B16: 6H12 (antibody, V domains shown)
VH: EVQLVESGGGLVQPGGSLRLSCAASGFTFSSYEMNWVRQAPGKGLEWVSYISSGGSSIKYADSVRGRFAFSRDNAENSVHLQMNSLRAEDTAVYYCARVGGSYYYSYAMDVWGQGTAVTVSS
VL: DIQLTQSPSFLSASVGDRVTITCWASQDISSYLAWYQQKPGKAPKLLIYAASTLQSGVPSRFTGSGSGTEFTLTISSLQPEDFATYYCQQPHNSPFSFGPGTKVDVK
B16 was tested, and the EC50, pseudovirus neutralization (mAb mixed with irrelevant isotype matched mAb M2) [2] was 0.96 pM and the EC50, pseudovirus neutralization [1] was 3.9 pM.

B17: 11D12 (antibody, V domains shown)
VH: EVQLVESGGGLVQPGGSLRLSCAASGFTFSSYEMNWVRQAPGKGLEWVSYISSGGSSIKYADSVRGRFTFSRDNAENSVFLQMNSLRGEDTAVYYCARVGGSYYYSYAMDVWGQGTAVTVSS
VL: DIQLTQSPSFLSASVGDRVTITCWASQDISSYLAWYQQKPGKAPKLLIYAASTLQSGVPSRFSGSGSGTEFTLTISSLQPEDFATYYCQQPNNYPFSFGPGTKVDVK
Work on B17 yielded an EC50, pseudovirus neutralization [1] of 10.9 pM.
